Measurements: publication PMC3942532 (2014)

Target: dynorphin A-(1-13)-OH 1-13 (Homo sapiens, UniProt P01213)
Experiment: radioligand competition

- Ki: 4 nM
B1: mu opioid receptor (protein)
chain: MDSSTGPGNTSDCSDPLAQASCSPAPGSWLNLSHVDGNQSDPCGLNRTGLGGNDSLCPQTGSPSMVTAITIMALYSIVCVVGLFGNFLVMYVIVRYTKMKTATNIYIFNLALADALATSTLPFQSVNYLMGTWPFGTILCKIVISIDYYNMFTSIFTLCTMSVDRYIAVCHPVKALDFRTPRNAKIVNVCNWILSSAIGLPVMFMATTKYRQGSIDCTLTFSHPTWYWENLLKICVFIFAFIMPVLIITVCYGLMILRLKSVRMLSGSKEKDRNLRRITRMVLVVVAVFIVCWTPIHIYVIIKALITIPETTFQTVSWHFCIALGYTNSCLNPVLYAFLDENFKRCFREFCIPTSSTIEQQNSTRVRQNTREHPSTANTVDRTNHQLENLEAETAPLP
